According to patent US20200384118A1, “IMMUNOTOXIN CONJUGATES FOR USE IN THERAPY” (FRIEDRICH-ALEXANDER-UNIVERSITAT ERLANGEN-NURNBERG, priority 2017, published 2020):

B1: Moxe: reference immunotoxin compared with LMIT-2 in FIG. 2B; not further defined in the text (antibody, chains of the INN, looked up, V domains shown)
VH: EVQLVESGGGLVKPGGSLKLSCAASGFAFSIYDMSWVRQTPEKCLEWVAYISSGGGTTYYPDTVKGRFTISRDNAKNTLYLQMSSLKSEDTAMYYCARHSGYGTHWGVLFAYWGQGTLVTVSA
VL: DIQMTQTTSSLSASLGDRVTISCRASQDISNYLNWYQQKPDGTVKLLIYYTSILHSGVPSRFSGSGSGTDYSLTISNLEQEDFATYFCQQGNTLPWTFGCGTKLEI
modifications: pasudotox (PE38 toxin fusion)
notes: not further defined in the text
B2: PV: CD22-targeting IgG-based ADC, antibody conjugated with MMAE (conjugate, chains of the INN, looked up)
VH: EVQLVESGGGLVQPGGSLRLSCAASGYEFSRSWMNWVRQAPGKGLEWVGRIYPGDGDTNYSGKFKGRFTISADTSKNTAYLQMNSLRAEDTAVYYCARDGSSWDWYFDVWGQGTLVTVSS
VL: DIQMTQSPSSLSASVGDRVTITCRSSQSIVHSVGNTFLEWYQQKPGKAPKLLIYKVSNRFSGVPSRFSGSGSGTDFTLTISSLQPEDFATYYCFQGSQFPYTFGQGTKVEIK
modifications: vedotin (MMAE) payload

Experiments:
[1] = cytotoxicity of immunotoxins and blocking of LMIT-2 by LMIT-3 (FIG. 2B); type: cell-based
many cell lines [2] = experiment: molar activity in vitro against many cell lines (FIG. 3B); type: cell-based; settings: on average, PV from published activity
Method: FIG. 3: Activity of Duotoxins in vitro.
LMIT-2-DM1 was tested against various cell lines (FIG. 3A). […] Cells like DOHH-2 that are resistant to immunotoxins were sensitive to the LMIT-2-DM1. We have not found a cell line which is resistant to both, the PE and the DM1 in vitro. […] On average 3.6 DM1 molecules per LMIT-3 molecule were coupled. […] The activity of PV varies substantially over a 3-log concentration range. […] The activity is tested by plating the above described cell lines at 20,000 cells per well in a 96-well plate. The immunotoxin or duotoxin is added at indicated concentrations in a three-fold serial dilution, the cells incubated in a humidified incubator for 72 hours. The cells are then collected by centrifugation, stained with 7-AAD and Annexin V and cell death determined by flow cytometry. The concentration at which 50% of the cells are killed (IC50) reflects the activity of a drug against a cell and is determined from the flow cytometry data by non-linear regression analysis.

many cell lines [3] = settings: published activity of PV; cited from earlier work

Molecule | activity of LMIT-2 compared with Moxe [1] | activity relative to LMIT-2 (less active) (many cell lines [2]) [logs] | variation of activity over concentration range (many cell lines [3]) [log]
B1 | comparable activity |  | 
B2 |  | 3 | 3
